{"source": "paper PMC7962911", "about": "“Modular Synthesis of Trifunctional Peptide-oligonucleotide Conjugates via Native Chemical Ligation” (Frontiers in Chemistry, 2021)", "key": {"[1]": {"system": "SMA patient-derived fibroblasts", "assay": "Confocal microscopy of Cy5 fluorescent uptake", "assay_type": "cell-based, human", "conditions": "1 and 2 µm in OptiMEM without serum, 1 h at 37°C, Cy5 excitation 633 nm", "experimental": "For fluorescent uptake studies, SMA fibroblast cells were plated at a density of 60,000 cells/well of a µ-Slide 4 Well ^Ph+ Glass Bottom chamber slides precoated with poly-L-ornithine. The cells reached 80% confluency after 24 h. They were treated with Cy5-labelled peptide-PNA conjugates made up at a concentration of 1 and 2 µm in OptiMEM without serum for 1 h at 37°C. At 15 min to the end of incubation time, Hoechst (1:1,000 dilution) was added to each well. Cells were washed with PBS and images of cells were taken using the Leica SP8 Resonant Scanning microscope with 63×/1.4 oil objective. The images were acquired at the Cy5-specific excitation of 633 nm and emission of 638–779 nm and Hoechst excitation and emission of 405 nm and 410–585 nm, respectively."}, "full-length SMN2 mRNA": {"system": "full-length SMN2 mRNA", "assay": "SMN2 exon-inclusion assay (RT-qPCR of full-length SMN2 mRNA)", "assay_type": "cell-based, human", "conditions": "SMA patient-derived fibroblasts (Type-I, GM03813), conjugates 1 and 2 µm in serum-free Opti-MEM for 4 h at 37°C, then growth medium for 20 h, ∆∆Ct vs HPRT1, normalized to untreated = 1, mean ± SEM, N = 3"}, "[2]": {"conditions": "concentration range of 20–30 µm; peptides alone and as conjugate to ASOs; ref Neundorf et al., 2009; Shabanpoor et al., 2017; cited from earlier work", "description": "We chose an FDA-approved oligonucleotide sequence (Table 1) targeting survival motor neuron-2 (SMN2) mRNA splice correction as a model ASO (in PNA chemistry) for conjugation to a previously characterized CPP derived from the receptor-binding domain of Apolipoprotein E [ApoE(133–150)] ([Meloni et al., 2020]). In order to synthesize trifunctional conjugates, three different functional moieties were selected for conjugation to the side-chain of […] that was generated during NCL of CPP-ASO. These functional moieties include the FDA-approved oligonucleotide sequence as above but incorporated in ..."}}, "data": [{"substance": "Ac-LRVRLASHLRKLRKRLLR-X-G-C-X-ATTCACTTTCATAATGCTGG | Cy5 [C2, Cy5-labelled ApoE-PNA conjugate, fluorophore on the cysteine thiol of C1]", "values": [{"measurement": "uptake in fibroblasts (Cy5 fluorescence)", "setting": "[1]", "value": "concentration-dependent increase in uptake"}]}, {"substance": "Ac-LRVRLASHLRKLRKRLLR-X-G-C-X-ATTCACTTTCATAATGCTGG | Mal-ATTCACTTTCATAATGCTGG [C3, trifunctional conjugate of C1 with maleimide-PMO (SMN2) on the cysteine thiol]", "values": [{"measurement": "antisense activity (change in the level of full-length SMN2 mRNA)", "setting": "full-length SMN2 mRNA", "value": "higher activity compared to the peptide-PNA (C1) conjugate"}]}, {"substance": "ApoE: previously characterized CPP derived from the receptor-binding domain of Apolipoprotein E (LRVRLASHLRKLRKRLLR; UniProt P02649 151-168, looked up, fragment)", "values": [{"measurement": "cytotoxic effect", "setting": "[2]", "value": "no significant cytotoxic effect"}]}]}
